Our source for the Alexa 430 donor lifetime with Cy3 acceptor on PS1 CT and FRET strength values is article PMC3050036.

The test addresses presenilin-1 (wild-type PS1) (UniProt P49768). The test can be described thus: FRET or BRET.

Substance “V5-tagged ubiquilin-1 transcript variant 3 (TV3) (natural protein)” registered an Alexa 430 donor lifetime with Cy3 acceptor on PS1 CT of 1350 psec and an FRET strength of 0.3.
